Paper PMC8904551

Columns and labels:
[1] = target: N-terminally biotinylated Gαs-peptide (bio-Spep); assay: pull-down; affinity sequestration as above, with 10 µM Qpep (Gαq peptide) added to the 30 µM bio-Spep; 100 µM isoproterenol; streptavidin Dynabeads; FRET buffer + 0.1 mg/mL BSA
[2] = target: N-terminally biotinylated Gαs-peptide (bio-Spep); assay: pull-down; affinity sequestration: β2AR-mCer native membranes with 100 µM isoproterenol and 30 µM bio-Spep, 5 min at room temperature, then streptavidin Dynabeads for 5 min; fraction bound = 1 - fraction of mCerulean counts in the supernatant; FRET buffer + 0.1 mg/mL BSA
[3] = target: β2 adrenergic receptor, the receptor part of the β2AR-Spep SPASM sensor (UniProt P07550); assay: FRET or BRET; steady-state ΔFRET of the β2AR-Spep SPASM sensor in native HEK293T membranes; 100 µM clenbuterol (partial agonist) against buffer, 5 min, 25 °C, FRET buffer; both partners on one chain
[4] = target: β2 adrenergic receptor, the receptor part of the β2AR-Spep SPASM sensor (UniProt P07550); assay: FRET or BRET; steady-state ΔFRET of the β2AR-Spep SPASM sensor in native HEK293T membranes; 100 µM clenbuterol with 30 µM soluble Qpep (Gαq peptide), 5 min, 25 °C, FRET buffer; both partners on one chain
[5] = target: β2 adrenergic receptor, the receptor part of the β2AR-Spep SPASM sensor (UniProt P07550); assay: FRET or BRET; steady-state ΔFRET of the β2AR-Spep SPASM sensor in native HEK293T membranes; 100 µM isoproterenol with 30 µM soluble Qpep (Gαq peptide), 5 min, 25 °C, FRET buffer; both partners on one chain
[6] = target: β2 adrenergic receptor, the receptor part of the β2AR-Spep SPASM sensor (UniProt P07550); assay: FRET or BRET; stopped-flow decay of the FRET ratio (mCit/mCer) of the β2AR-Spep SPASM sensor in native HEK293T membranes, preincubated with 100 µM isoproterenol and quenched with 10 µM Nb6B9; FRET buffer; triple exponential fit with one decay constrained to the decay without Nb6B9; both partners on one chain

| Substance | fraction of receptor bound, with 10 µM Qpep [1] [%] | fraction of receptor bound [2] [%] | fold weaker interaction (ΔFRET) with clenbuterol than with isoproterenol [3] [fold] | fold increase of the interaction (ΔFRET) with Qpep against without, clenbuterol [4] [fold] | fold increase of the interaction (ΔFRET) with Qpep against without, isoproterenol [5] [fold] | koff, strong interaction state (slow decay) [6] [s⁻¹] | koff, weak interaction state (fast decay) [6] [s⁻¹] |
| --- | --- | --- | --- | --- | --- | --- | --- |
| β2AR-mCerulean (from UniProt P07550 1-413) (receptor) | 17 | 5 | – | – | – | – | – |
| Gαs-peptide (Spep), the 27 amino acid Gα C-terminal peptide of the β2AR-Spep SPASM sensor | – | – | 6 | 5 | 2 | 0.006 | 0.3 |
